We go through 11 molecules from patent US20120021972A1 (CADILA HEALTHCARE, published 2012).

Starred links: 1 amine or outer side, 2 acyl side, 3 side chain; linkers in the order of their positions; H or OH if unused. Non-standard residues stand in square brackets, D forms with d. No end group written: not given here. AMCB = 2-amino-5-(4-chloro-2-methylphenyl)pentanoic acid, Cc1cc(Cl)ccc1CCC[C@H](N[*:1])C(=O)[*:2]; 2CF3,4F‑APPA = 2-amino-5-(4-fluoro-2-(trifluoromethyl)phenyl)pentanoic acid; 2CF3‑APPA = 2-amino-5-(2-(trifluoromethyl)phenyl)pentanoic acid; Bip(2'-Et-4'-OMe) = CCc1cc(OC)ccc1-c1ccc(C[C@H](N)C(=O)O)cc1; Leu(5,5,5,5',5',5'-F6) = N[C@@H](CC(C(F)(F)F)C(F)(F)F)C(=O)O; Nva(5-(3,5-Me2Ph)) = Cc1cc(C)cc(CCC[C@H](N)C(=O)O)c1; 2F‑APPA = 2-amino-5-(2-fluorophenyl)pentanoic acid; αMePhe(2-F) = C[C@](N)(Cc1ccccc1F)C(=O)O; hhPhe = N[C@@H](CCCc1ccccc1)C(=O)O; aThr = C[C@H](O)[C@H](N)C(=O)O; CNB = not defined here; Ac3c = NC1(C(=O)O)CC1; Aib = CC(C)(N)C(=O)O

Holding throughout (test): cell-based or functional assay
In assay [1] the target is T1, human GLP-1 receptor (human, UniProt P43220 24-463).
T1 sequence (P43220 24-463): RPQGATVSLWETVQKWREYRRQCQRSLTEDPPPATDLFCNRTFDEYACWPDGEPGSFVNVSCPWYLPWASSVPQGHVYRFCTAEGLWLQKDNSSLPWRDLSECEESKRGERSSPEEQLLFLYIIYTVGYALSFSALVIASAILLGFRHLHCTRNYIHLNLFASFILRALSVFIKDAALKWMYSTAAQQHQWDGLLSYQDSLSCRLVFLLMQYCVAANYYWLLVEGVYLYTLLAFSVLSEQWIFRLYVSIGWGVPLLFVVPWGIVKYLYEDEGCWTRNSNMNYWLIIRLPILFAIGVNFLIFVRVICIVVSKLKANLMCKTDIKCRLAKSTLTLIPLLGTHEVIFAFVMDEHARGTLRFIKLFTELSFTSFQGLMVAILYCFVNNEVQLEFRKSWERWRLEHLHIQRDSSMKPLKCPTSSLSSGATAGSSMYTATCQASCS
The target of assay [2] is human glucagon receptor (human, UniProt P47871 26-477).
For assay [3], the target named is T1, human GLP-1 receptor. The source holds these as a separate data set.

With H[Aib]QGT[αMePhe(2-F)]TSD[Bip(2'-Et-4'-OMe)][Nva(5-(3,5-Me2Ph))] [Seq. ID. No. 38: H-Aib-QGT-(α-Me-2F-Phe)-TSD-Bip(OMe)-(ADMP)], the “EC50, cAMP, H GLP-1 R assay” value in assay [1] amounted to 0.34 nM.
For H[Aib][CNB]GTFTSD[Bip(2'-Et-4'-OMe)][Nva(5-(3,5-Me2Ph))] (reading uncertain) [Seq. ID. No. 30: H-Aib-(CNB)-GTFTSD-Bip(OMe)-(ADMP)], in assay [2], the “inhibition of cAMP production, 1 nM” value stood at 22 pmol/ml/µg prt; the “inhibition of cAMP production, 10 nM” value stood at 21 pmol/ml/µg prt; the “inhibition of cAMP production, 100 nM” value came out at 20 pmol/ml/µg prt; the “inhibition of cAMP production, 1 µM” value is 18 pmol/ml/µg prt. The “inhibition of cAMP production, 10 µM” value in assay [2] turned out to be 18 pmol/ml/µg prt. In assay [3], the “cAMP release, % activity, 1 nM” value is 38%; the “cAMP release, % activity, 10 nM” value is 78%; the “cAMP release, % activity, 100 nM” value was 86%; the “cAMP release, % activity, 1 µM” value is 95%. For the same molecule, in assay [3], the “cAMP release, % activity, 10 µM” value was determined as 98%.
For H[Aib][Leu(5,5,5,5',5',5'-F6)]GT[αMePhe(2-F)]TSD[Bip(2'-Et-4'-OMe)][AMCB] [Seq. ID. No. 237: H-Aib-(Hfl)-GT-(α-Me-2F-Phe)-TSD-Bip(OMe)-(AMCB)], in assay [2], the “inhibition of cAMP production, 1 nM” value came out at 21 pmol/ml/µg prt; the “inhibition of cAMP production, 10 nM” value amounted to 19 pmol/ml/µg prt; the “inhibition of cAMP production, 100 nM” value came to 18 pmol/ml/µg prt; the “inhibition of cAMP production, 1 µM” value came to 18 pmol/ml/µg prt. Also, the “inhibition of cAMP production, 10 µM” value in assay [2] came out at 16 pmol/ml/µg prt. Also, in assay [3], the “cAMP release, % activity, 1 nM” value worked out at 96%; the “cAMP release, % activity, 10 nM” value was determined as 99%; the “cAMP release, % activity, 100 nM” value came to 99%; the “cAMP release, % activity, 1 µM” value stood at 99%. The “cAMP release, % activity, 10 µM” value in assay [3] stood at 99%.
Take Ac-H[Aib][CNB]GT[αMePhe(2-F)]TSD[Bip(2'-Et-4'-OMe)][2F‑APPA] (reading uncertain) [Seq. ID. No. 207: CH3CO-H-Aib-(CNB)-GT-(α-Me-2F-Phe)-TSD-Bip(OMe)-(2F-APPA)]: in assay [2], the “inhibition of cAMP production, 1 nM” value was found to be 0 pmol/ml/µg prt; the “inhibition of cAMP production, 10 nM” value came out at 0 pmol/ml/µg prt; the “inhibition of cAMP production, 100 nM” value stood at 0 pmol/ml/µg prt; the “inhibition of cAMP production, 1 µM” value was determined as 0 pmol/ml/µg prt. The “inhibition of cAMP production, 10 µM” value in assay [2] worked out at 0 pmol/ml/µg prt. For the same molecule, in assay [3], the “cAMP release, % activity, 1 nM” value came out at 40%; the “cAMP release, % activity, 10 nM” value was determined as 81%; the “cAMP release, % activity, 100 nM” value was found to be 89%; the “cAMP release, % activity, 1 µM” value amounted to 96%. The “cAMP release, % activity, 10 µM” value in assay [3] stood at 99%.
In the case of H[Aib][CNB]GTFTSD[Bip(2'-Et-4'-OMe)][2F‑APPA] (reading uncertain) [Seq. ID. No. 77: H-Aib-(CNB)-GTFTSD-Bip(OMe)-(2F-APPA)], in assay [2], the “inhibition of cAMP production, 1 nM” value turned out to be 20 pmol/ml/µg prt; the “inhibition of cAMP production, 10 nM” value came out at 18 pmol/ml/µg prt; the “inhibition of cAMP production, 100 nM” value turned out to be 16 pmol/ml/µg prt; the “inhibition of cAMP production, 1 µM” value turned out to be 14 pmol/ml/µg prt. The “inhibition of cAMP production, 10 µM” value in assay [2] came to 12 pmol/ml/µg prt. For the same molecule, in assay [3], the “cAMP release, % activity, 1 nM” value came out at 40%; the “cAMP release, % activity, 10 nM” value was 81%; the “cAMP release, % activity, 100 nM” value came out at 87%; the “cAMP release, % activity, 1 µM” value is 95%. The “cAMP release, % activity, 10 µM” value in assay [3] stood at 98%.
For H[Aib][CNB]GTFTSD[Bip(2'-Et-4'-OMe)][hhPhe] (reading uncertain) [Seq. ID. No. 29: H-Aib-(CNB)-GTFTSD-Bip(OMe)-(APPA)], in assay [2], the “inhibition of cAMP production, 1 nM” value came out at 20 pmol/ml/µg prt; the “inhibition of cAMP production, 10 nM” value was found to be 18 pmol/ml/µg prt; the “inhibition of cAMP production, 100 nM” value is 16 pmol/ml/µg prt; the “inhibition of cAMP production, 1 µM” value was determined as 14 pmol/ml/µg prt. The “inhibition of cAMP production, 10 µM” value in assay [2] came out at 12 pmol/ml/µg prt. Moreover, in assay [3], the “cAMP release, % activity, 1 nM” value worked out at 96%; the “cAMP release, % activity, 10 nM” value was 99%; the “cAMP release, % activity, 100 nM” value was determined as 99%; the “cAMP release, % activity, 1 µM” value is 99%. The “cAMP release, % activity, 10 µM” value in assay [3] came out at 99%.
For the molecule H[Aib][Leu(5,5,5,5',5',5'-F6)]G[aThr][αMePhe(2-F)][aThr]SD[Bip(2'-Et-4'-OMe)][hhPhe] [Seq. ID. No. 228: H-Aib-(Hfl)-G-T(allo)-(α-Me-2F-Phe)-T(allo)-SD-Bip(OMe)-(APPA)], in assay [2], the “inhibition of cAMP production, 1 nM” value was 19 pmol/ml/µg prt; the “inhibition of cAMP production, 10 nM” value stood at 17 pmol/ml/µg prt; the “inhibition of cAMP production, 100 nM” value was 15 pmol/ml/µg prt; the “inhibition of cAMP production, 1 µM” value was 14 pmol/ml/µg prt. For the same molecule, the “inhibition of cAMP production, 10 µM” value in assay [2] came to 12 pmol/ml/µg prt. Moreover, in assay [3], the “cAMP release, % activity, 1 nM” value was 99%; the “cAMP release, % activity, 10 nM” value is 99%; the “cAMP release, % activity, 100 nM” value was 99%; the “cAMP release, % activity, 1 µM” value is 99%. In addition, in assay [3], the “cAMP release, % activity, 10 µM” value was 99%.
Consider H[Ac3c]QGTFTSD[Bip(2'-Et-4'-OMe)][2CF3,4F‑APPA] [Seq. ID. No. 72: H-(ACP)-QGTFTSD-Bip(OMe)-(2CF3,4F-APPA)], for which, in assay [2], the “inhibition of cAMP production, 1 nM” value is 9 pmol/ml/µg prt; the “inhibition of cAMP production, 10 nM” value is 6 pmol/ml/µg prt; the “inhibition of cAMP production, 100 nM” value amounted to 5 pmol/ml/µg prt; the “inhibition of cAMP production, 1 µM” value came out at 3 pmol/ml/µg prt. The “inhibition of cAMP production, 10 µM” value in assay [2] turned out to be 0 pmol/ml/µg prt. In assay [3], the “cAMP release, % activity, 1 nM” value was 45%; the “cAMP release, % activity, 10 nM” value turned out to be 84%; the “cAMP release, % activity, 100 nM” value came out at 90%; the “cAMP release, % activity, 1 µM” value was found to be 99%. Besides, the “cAMP release, % activity, 10 µM” value in assay [3] worked out at 99%.
For the molecule HSQGTFTSD[Bip(2'-Et-4'-OMe)][2F‑APPA] [Seq. ID. No. 45: HSQGTFTSD-Bip(OMe)-(2F-APPA)], in assay [2], the “inhibition of cAMP production, 1 nM” value worked out at 15 pmol/ml/µg prt; the “inhibition of cAMP production, 10 nM” value turned out to be 12 pmol/ml/µg prt; the “inhibition of cAMP production, 100 nM” value worked out at 8 pmol/ml/µg prt; the “inhibition of cAMP production, 1 µM” value was determined as 4 pmol/ml/µg prt. Besides, in assay [2], the “inhibition of cAMP production, 10 µM” value turned out to be 2 pmol/ml/µg prt. Also, in assay [3], the “cAMP release, % activity, 1 nM” value stood at 51%; the “cAMP release, % activity, 10 nM” value was 86%; the “cAMP release, % activity, 100 nM” value is 91%; the “cAMP release, % activity, 1 µM” value came out at 99%. In assay [3], the “cAMP release, % activity, 10 µM” value was 99%.
In the case of H[Aib][CNB]GTFTSD[Bip(2'-Et-4'-OMe)][2CF3‑APPA] (reading uncertain) [Seq. ID. No. 79: H-Aib-(CNB)-GTFTSD-Bip(OMe)-(2CF3-APPA)], in assay [2], the “inhibition of cAMP production, 1 nM” value is 6 pmol/ml/µg prt; the “inhibition of cAMP production, 10 nM” value amounted to 5 pmol/ml/µg prt; the “inhibition of cAMP production, 100 nM” value is 2 pmol/ml/µg prt; the “inhibition of cAMP production, 1 µM” value was 0 pmol/ml/µg prt. Moreover, in assay [2], the “inhibition of cAMP production, 10 µM” value amounted to 0 pmol/ml/µg prt. Besides, in assay [3], the “cAMP release, % activity, 1 nM” value is 62%; the “cAMP release, % activity, 10 nM” value stood at 94%; the “cAMP release, % activity, 100 nM” value is 99%; the “cAMP release, % activity, 1 µM” value turned out to be 99%. For the same molecule, in assay [3], the “cAMP release, % activity, 10 µM” value was 99%.
H[Aib]QGT[αMePhe(2-F)]TSD[Bip(2'-Et-4'-OMe)][AMCB] [Seq. ID. No. 40: H-Aib-QGT-(α-Me-2F-Phe)-TSD-Bip(OMe)-(AMCB)]: in assay [2], the “inhibition of cAMP production, 1 nM” value was found to be 18 pmol/ml/µg prt; the “inhibition of cAMP production, 10 nM” value was 16 pmol/ml/µg prt; the “inhibition of cAMP production, 100 nM” value is 12 pmol/ml/µg prt; the “inhibition of cAMP production, 1 µM” value came to 8 pmol/ml/µg prt. In assay [2], the “inhibition of cAMP production, 10 µM” value was found to be 6 pmol/ml/µg prt. Further, in assay [3], the “cAMP release, % activity, 1 nM” value came out at 38%; the “cAMP release, % activity, 10 nM” value worked out at 77%; the “cAMP release, % activity, 100 nM” value came out at 85%; the “cAMP release, % activity, 1 µM” value was found to be 94%. Besides, the “cAMP release, % activity, 10 µM” value in assay [3] was found to be 97%.
